Test results taken from the supplement of paper PMC10126150.
± gives the standard deviation of the averaged measurements.

Tested on: ATP
Assay: switch fluorescence ratio, 500 uM ATP over buffer (Cy3 cluster intensity, sum of 5 cycles each) (fold (ratio)); higher = stronger signal-on switching upon ATP binding; sequences stand for … in TCGTCGGCAGCGTCAGATGTGTATAAGAGACAGTTTTTTTTTTTTTTTTTTTTTTTTT…TC
Settings: aptamer strand: ATP DNA aptamer (quencher-CACCTGGGGGAGTATTGCGGAGGAAGG + anchor), 100 nM annealed; ATP concentration: 500 uM
Method in brief: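 Between each of five buffer/ATP cycles, the flow-cell was stripped with NaOH and re-annealed. Each cycle imaged Cy3-labelled switching-strand clusters, annealed to 100 nM quencher-labelled ATP aptamer on a modified Illumina MiSeq flow-cell, first in selection buffer and then after 15 min with 500 uM ATP at 22 °C. The fluorescence ratio is summed target-cycle over summed buffer-cycle Cy3 intensity per cluster, averaged per switch-domain sequence, with clusters outside 100-1000 RFU excluded.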
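Note: ATP exposure 15 min at 22 °C before imaging.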

| Sequence | switch fluorescence ratio |
| --- | --- |
| GGATATGAGG | 1 ± 0.018 |
| GGATATGTGT | 0.991 ± 0.016 |
| GGATATTTGG | 0.992 ± 0.029 |
| GGATCCACGG | 1.012 ± 0.005 |
| GGATCCTTTC | 1.23 ± 0.083 |
| GGATCGCGAA | 0.978 ± 0.011 |
| GGATCGGGGG | 1.03 ± 0.05 |
| GGATCGTGGG | 0.995 ± 0.03 |
| GGATGAAGGA | 0.978 ± 0.038 |
| GGATGAATTG | 1.01 ± 0.018 |
| GGATGATTTG | 0.968 ± 0.025 |
| GGATGCGCAG | 0.987 ± 0.016 |
| GGATGCGGCC | 0.992 ± 0.023 |
| GGATGGGATG | 0.989 ± 0.04 |
| GGATGGGGTG | 1.01 ± 0.053 |
| GGATGTCTAG | 0.9885 ± 0.0037 |
| GGATGTGGGA | 0.981 ± 0.017 |
| GGATGTGGGG | 0.969 ± 0.034 |
| GGATGTTAGT | 1 ± 0.008 |
| GGATGTTTGG | 0.975 ± 0.014 |
| GGATTAAATG | 0.982 ± 0.037 |
| GGATTAATCG | 1 ± 0.015 |
| GGATTACAGT | 0.997 ± 0.014 |
| GGATTAGGGG | 0.998 ± 0.022 |
| GGATTAGTCA | 0.9973 ± 0.0047 |

| Sequence | switch fluorescence ratio |
| --- | --- |
| GGATTATATT | 1.0205 ± 0.00083 |
| GGATTCAGGC | 0.981 ± 0.027 |
| GGATTCCGGC | 0.981 ± 0.053 |
| GGATTCGGTG | 0.976 ± 0.02 |
| GGATTGAAGT | 0.981 ± 0.023 |
| GGATTGAGGC | 0.968 ± 0.0046 |
| GGATTGAGGT | 1.02 ± 0.032 |
| GGATTGATTA | 1.01 ± 0.032 |
| GGATTGATTT | 0.993 ± 0.038 |
| GGATTGCCGA | 1.01 ± 0.043 |
| GGATTGGCGG | 0.983 ± 0.039 |
| GGATTGTTTG | 1.009 ± 0.01 |
| GGATTTAATA | 1.02 ± 0.03 |
| GGATTTAATG | 0.9523 ± 0.0057 |
| GGATTTATAA | 0.9961 ± 0.0011 |
| GGATTTTATC | 0.992 ± 0.013 |
| GGATTTTGTT | 0.998 ± 0.031 |
| GGATTTTTAT | 0.999 ± 0.028 |
| GGATTTTTCA | 0.985 ± 0.013 |
| GGATTTTTGG | 0.989 ± 0.036 |
| GGCAAAGGAC | 1.08 ± 0.027 |
| GGCAAATCGG | 0.995 ± 0.014 |
| GGCAACAGCG | 1.039 ± 0.003 |
| GGCAACGCGT | 1 ± 0.025 |
| GGCAATATGT | 1.24 ± 0.077 |

| Sequence | switch fluorescence ratio |
| --- | --- |
| GGCAATCCCA | 1.03 ± 0.012 |
| GGCAATTATG | 1.02 ± 0.025 |
| GGCAATTTTT | 0.992 ± 0.049 |
| GGCACTGGAT | 1.02 ± 0.02 |
| GGCACTGGGG | 1.02 ± 0.02 |
| GGCAGCAAGG | 1.084 ± 0.0029 |
| GGCAGCGGGG | 0.991 ± 0.019 |
| GGCAGGAGGG | 1.11 ± 0.22 |
| GGCAGGCCAT | 1.059 ± 0.0074 |
| GGCAGGGGGA | 1.01 ± 0.015 |
| GGCAGGTTGG | 0.952 ± 0.014 |
| GGCAGTTTTT | 0.985 ± 0.02 |
| GGCATAAGGG | 1.03 ± 0.05 |
| GGCATACCGT | 0.997 ± 0.0052 |
| GGCATAGGGG | 1.01 ± 0.026 |
| GGCATCGCCG | 0.954 ± 0.013 |
| GGCATCGTCG | 0.97 ± 0.025 |
| GGCATTAAAG | 0.9841 ± 0.0078 |
| GGCATTGTCT | 1.03 ± 0.023 |
| GGCATTTTTT | 1 ± 0.031 |
| GGCCAATCAG | 1.018 ± 0.0024 |
| GGCCACGCTC | 1.04 ± 0.043 |
| GGCCCCCGGC | 0.969 ± 0.026 |
| GGCCCCGGCG | 1 ± 0.015 |
| GGCCCCTTTT | 1.021 ± 0.0053 |

| Sequence | switch fluorescence ratio |
| --- | --- |
| GGCCCGGCAC | 1.01 ± 0.013 |
| GGCCCGGGGT | 1.44 ± 0.37 |
| GGCCCGTCGG | 1.03 ± 0.0047 |
| GGCCCTAGTA | 1 ± 0.059 |
| GGCCCTCTGA | 1.05 ± 0.018 |
| GGCCCTGAGC | 0.9991 ± 0.0025 |
| GGCCGACTTG | 1 ± 0.043 |
| GGCCGCAGGT | 0.987 ± 0.023 |
| GGCCGCCGTC | 1 ± 0.019 |
| GGCCGGCAAA | 1.01 ± 0.037 |
| GGCCGGGGGG | 1.02 ± 0.058 |
| GGCCGGGGGT | 1.25 ± 0.4 |
| GGCCGGGGTG | 1.18 ± 0.032 |
| GGCCTAAATA | 0.998 ± 0.014 |
| GGCCTAATAG | 1 ± 0.034 |
| GGCCTATGTC | 1.04 ± 0.011 |
| GGCCTCAAAT | 1.01 ± 0.037 |
| GGCCTCCTGT | 1.02 ± 0.033 |
| GGCCTCGCCT | 0.98511 ± 9.3e-05 |
| GGCCTCGTAC | 1.1 ± 0.02 |
| GGCCTCTGCT | 1.02 ± 0.02 |
| GGCCTGGGAC | 1.01 ± 0.027 |
| GGCCTGGGAG | 0.992 ± 0.011 |
| GGCCTTCGGG | 0.972 ± 0.053 |
| GGCGAAAGGA | 1 ± 0.041 |
